Tests used:
Assay in all cases: SPR
M/N120 = M/N120 (UniProt Q9UBB5)
M/N20 = M/N20 (UniProt Q9UBB5)
M/N60 = M/N60 (UniProt Q9UBB5)

Measured: Kd

P15 (from UniProt Q86YP4 137-178) (domain or fragment)
3 nM: M/N120 | M/N20 | M/N60
